Measurements: patent US20050187147A1
Square brackets hold non-standard residues; d marks the D form. Primed or numbered codes have the meaning given here. * marks the point of attachment. 10Ca = carbamate linkage conjugating the peptide-PEG to paclitaxel at C10; PEG(13) = PEG13 linker; Piv = CC(C)(C)C(=O)*; PXL = paclitaxel

Target: Human Akt kinase (Upstate #14-276) (human), P31749
Test: cell-based or functional assay

Sequence of Human Akt kinase (Upstate #14-276) (human), P31749 (P31749 whole entry): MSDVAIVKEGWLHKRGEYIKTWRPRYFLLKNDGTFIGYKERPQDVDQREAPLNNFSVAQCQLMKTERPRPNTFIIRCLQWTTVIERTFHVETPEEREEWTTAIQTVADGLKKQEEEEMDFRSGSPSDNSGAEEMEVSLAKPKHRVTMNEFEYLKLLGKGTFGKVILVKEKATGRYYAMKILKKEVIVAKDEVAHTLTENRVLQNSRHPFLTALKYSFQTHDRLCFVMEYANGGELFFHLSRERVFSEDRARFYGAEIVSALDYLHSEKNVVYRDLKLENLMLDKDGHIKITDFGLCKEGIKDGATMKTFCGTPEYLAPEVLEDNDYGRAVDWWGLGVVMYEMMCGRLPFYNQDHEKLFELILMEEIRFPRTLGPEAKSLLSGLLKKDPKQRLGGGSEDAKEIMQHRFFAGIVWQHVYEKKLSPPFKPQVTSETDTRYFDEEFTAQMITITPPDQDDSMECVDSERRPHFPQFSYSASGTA

Piv-GRPRTS[dS]FAEG-{PEG(13)-10Ca-PXL} [Pv-GRPRTSsFAEG-PEG(13)-10Ca-PXL] was tested, and the Ave. Akt Kinase Act. (% of parent peptide activity) was 0.
